Source: patent US6927286B1, “Bleomycin gene cluster components and their uses” (The Regents of the University of California, priority 1999, dated 2005)

Columns and labels:
[1] = target: apo-BlmI (type II peptidyl carrier protein BlmI, apo-form, produced from pBS2) (Streptomyces verticillus ATCC15003); assay: cell-based or functional assay
[2] = test system: T1, apo-BlmI (type II peptidyl carrier protein BlmI, apo-form, produced from pBS2)
T1 sequence: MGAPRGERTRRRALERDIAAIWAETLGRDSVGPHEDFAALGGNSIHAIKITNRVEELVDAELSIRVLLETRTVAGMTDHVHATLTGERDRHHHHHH

[3] = test system: T2, holo-BlmI (4'-phosphopantetheinylated BlmI, produced from pBS2)
T2 sequence: T1 sequence

[4] = test system: apo-BlmI; assay: In vitro 4′-phosphopantetheinylation of BlmI by Sfp with [3H-pantetheine]-CoA; assay type: biochemical, Streptomyces verticillus; settings: autoradiographic analysis
Experimental: To investigate 4′-phosphopantetheinylation of BlmI in vitro, we chose the Sfp protein as the preferred PPTase, which had been isolated before from the surfactin producer Bacillus subtilis (Nakano et al. (1992) Mol. Gen. Genet. 232: 313-321).
Expression of sfp in E. coli MV1190(pUC8-Sfp), purification of the Sfp PPTase to homogeneity, and 4′-phosphopantetheinylation of apo-BlmI by Sfp in vitro were carried out essentially according to literature procedures (Quadri et al. (1998) Biochemistry 37: 1585-1595; Nakano et al. (1992) Mol. Gen. Genet. 232: 313-321). A typical 100 μl assay solution contained 26 μM apo-BlmI, 2.9 μM Sfp, 25 μM [^3H-pantetheine]-CoA (0.9 μCi, 40 Ci/mM), 10 mM MgCl2, and 5 mM DTT, in 75 mM MES/NaOAc buffer, pH 6.0. After 30 min incubation at 37° C., the assays were stopped by addition of 5 μl of bovine serum albumin (0.2 mg/ml) and 0.9 ml of cold 10% (v/v) trichloroacetic acid (TCA). The precipitated proteins were collected by centrifugation at 14,000 rpm, 20 min, 4° C. (Eppendorf 5415C centrifuge), washed with 10% TCA three times, and resolved by SDS-PAGE on 15% gel. The ^3H-activity incorporated into holo-BlmI was similarly determined by autoradiography as described for in vivo labeling of holo-Blm with [3-^3H]-β-alanine.

[5] = target: T3, apo-BlmI (type II peptidyl carrier protein BlmI, apo-form, produced from pBS2)
T3 chain: T1 sequence

[6] = target: T4, Gsp PPTase (Aneurinibacillus migulanus, UniProt P40683); assay: In vivo 4′-phosphopantetheinylation of BlmI co-expressed with gsp in E. coli OG7001; assay type: cell-based; settings: E. coli OG7001(pBS2/pDPT-Gsp), HPLC analysis
T4 construct: expressed in transfected cells; host or cells: E. coli OG7001 (pBS2/pDPT-Gsp)
T4 sequence (P40683 whole entry, looked up): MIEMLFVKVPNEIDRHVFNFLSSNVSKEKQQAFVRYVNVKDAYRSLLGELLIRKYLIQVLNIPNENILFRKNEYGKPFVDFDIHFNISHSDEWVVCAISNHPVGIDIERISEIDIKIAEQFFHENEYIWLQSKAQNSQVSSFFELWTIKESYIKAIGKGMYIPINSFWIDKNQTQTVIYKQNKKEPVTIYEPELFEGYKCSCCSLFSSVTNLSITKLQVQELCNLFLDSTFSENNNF
From the text: (§1) To examine 4′-phosphopantetheinylation of BlmI in vivo, we chose E. coli OG7001 as the expression host, which is a β-alanine auxotroph derived from E. coli BL21(DE3) by P1 co-transduction of the panD mutation from E. coli SJ16 (Epple et al. (1998) J. Bacteriol. 180: 4950-4954). Upon introduction of pBS2 into E. coli OG7001, blmI was exceptionally well expressed and the overproduced BlmI protein was readily purified. […] To circumvent the poor endogenous PPTase activity, we next co-expressed blmI with the gsp gene, which was isolated from the gramicidin S producer Bacillus brevis, and encoded a PPTase that was known to 4′-phosphopantetheinylate heterologously produced PCPs in E. coli (Lambalot et al. (1996) Chem. Biol. 3: 923-936; Ku et al. (1997) Chem. Biol. 4: 203-207). We co-transformed pDPT-Gsp, in which the expression of the gsp gene was under the control of the T5/Lac promoter (Ku et al. (1997) Chem. Biol. 4: 203-207), and pBS2 into E. coli OG7001. BlmI was again very well expressed and the resulting BlmI protein was similarly purified. […]
(§2) Samples of BlmI (30-70 μg) purified from E. coli OG7001(pBS2) or E. coli OG7001(pBS2/pDPT-Gsp) were analyzed on a Nova-Pak C18 column (5 mm×10, Waters, Milford, Mass.) using a Rainin DMAX HPLC unit. […]

[7] = test system: E. coli endogenous PPTases; assay: In vivo 4′-phosphopantetheinylation of BlmI in E. coli OG7001 without Gsp; assay type: cell-based; settings: E. coli OG7001(pBS2), HPLC analysis
From the text: as §1, §2

[8] = test system: MBlmX-2; assay: In vitro phosphopantetheinylation assay of PptA; settings: (3H)-(pantetheinyl)-CoASH, autoradiography
Sequence of MBlmX-2 (as listed by the source, one chain of several): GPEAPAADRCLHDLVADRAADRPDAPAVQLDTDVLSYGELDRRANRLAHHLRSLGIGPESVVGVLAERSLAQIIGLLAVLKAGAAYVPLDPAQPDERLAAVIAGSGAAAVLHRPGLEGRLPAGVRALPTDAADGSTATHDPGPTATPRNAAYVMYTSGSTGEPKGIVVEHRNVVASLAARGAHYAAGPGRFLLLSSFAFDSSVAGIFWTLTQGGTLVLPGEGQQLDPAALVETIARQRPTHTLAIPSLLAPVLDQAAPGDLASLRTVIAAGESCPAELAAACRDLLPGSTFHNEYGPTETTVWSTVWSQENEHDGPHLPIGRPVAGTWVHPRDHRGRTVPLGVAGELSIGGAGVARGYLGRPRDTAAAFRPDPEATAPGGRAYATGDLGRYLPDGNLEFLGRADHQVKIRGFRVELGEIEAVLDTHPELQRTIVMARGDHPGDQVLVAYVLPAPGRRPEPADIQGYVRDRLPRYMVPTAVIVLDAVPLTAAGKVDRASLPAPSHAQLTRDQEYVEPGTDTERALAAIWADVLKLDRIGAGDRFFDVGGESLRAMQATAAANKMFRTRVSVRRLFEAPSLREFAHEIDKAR

[9] = target: T5, TcmM (Streptomyces glaucescens, UniProt P12884); assay: In vitro phosphopantetheinylation assay of PptA; assay type: biochemical, S. glaucescens; settings: (3H)-(pantetheinyl)-CoASH, autoradiography
T5 construct: His6 (N); His6 (C); made in house; host or cells: E. coli BL21(DE3) (pET28a-TcmM)
T5 sequence (P12884 1-83): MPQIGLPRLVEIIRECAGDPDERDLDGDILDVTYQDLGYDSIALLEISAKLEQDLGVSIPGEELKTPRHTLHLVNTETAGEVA
T5 sequence (Q9F0Q6 1-246 partner): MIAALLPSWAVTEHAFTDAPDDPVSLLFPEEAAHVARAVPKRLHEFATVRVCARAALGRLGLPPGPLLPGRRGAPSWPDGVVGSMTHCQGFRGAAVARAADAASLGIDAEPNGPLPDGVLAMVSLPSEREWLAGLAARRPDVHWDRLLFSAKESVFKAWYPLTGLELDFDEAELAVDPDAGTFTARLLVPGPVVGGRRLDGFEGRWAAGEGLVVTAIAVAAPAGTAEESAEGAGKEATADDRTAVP

[10] = test system: BlmI; assay: In vitro phosphopantetheinylation assay of PptA; settings: (3H)-(pantetheinyl)-CoASH, autoradiography
[11] = test system: BlmVIII; assay: In vitro phosphopantetheinylation assay of PptA; assay type: biochemical, S. verticillus; settings: (3H)-(pantetheinyl)-CoASH, autoradiography
Sequence of BlmVIII (as listed by the source, one chain of several): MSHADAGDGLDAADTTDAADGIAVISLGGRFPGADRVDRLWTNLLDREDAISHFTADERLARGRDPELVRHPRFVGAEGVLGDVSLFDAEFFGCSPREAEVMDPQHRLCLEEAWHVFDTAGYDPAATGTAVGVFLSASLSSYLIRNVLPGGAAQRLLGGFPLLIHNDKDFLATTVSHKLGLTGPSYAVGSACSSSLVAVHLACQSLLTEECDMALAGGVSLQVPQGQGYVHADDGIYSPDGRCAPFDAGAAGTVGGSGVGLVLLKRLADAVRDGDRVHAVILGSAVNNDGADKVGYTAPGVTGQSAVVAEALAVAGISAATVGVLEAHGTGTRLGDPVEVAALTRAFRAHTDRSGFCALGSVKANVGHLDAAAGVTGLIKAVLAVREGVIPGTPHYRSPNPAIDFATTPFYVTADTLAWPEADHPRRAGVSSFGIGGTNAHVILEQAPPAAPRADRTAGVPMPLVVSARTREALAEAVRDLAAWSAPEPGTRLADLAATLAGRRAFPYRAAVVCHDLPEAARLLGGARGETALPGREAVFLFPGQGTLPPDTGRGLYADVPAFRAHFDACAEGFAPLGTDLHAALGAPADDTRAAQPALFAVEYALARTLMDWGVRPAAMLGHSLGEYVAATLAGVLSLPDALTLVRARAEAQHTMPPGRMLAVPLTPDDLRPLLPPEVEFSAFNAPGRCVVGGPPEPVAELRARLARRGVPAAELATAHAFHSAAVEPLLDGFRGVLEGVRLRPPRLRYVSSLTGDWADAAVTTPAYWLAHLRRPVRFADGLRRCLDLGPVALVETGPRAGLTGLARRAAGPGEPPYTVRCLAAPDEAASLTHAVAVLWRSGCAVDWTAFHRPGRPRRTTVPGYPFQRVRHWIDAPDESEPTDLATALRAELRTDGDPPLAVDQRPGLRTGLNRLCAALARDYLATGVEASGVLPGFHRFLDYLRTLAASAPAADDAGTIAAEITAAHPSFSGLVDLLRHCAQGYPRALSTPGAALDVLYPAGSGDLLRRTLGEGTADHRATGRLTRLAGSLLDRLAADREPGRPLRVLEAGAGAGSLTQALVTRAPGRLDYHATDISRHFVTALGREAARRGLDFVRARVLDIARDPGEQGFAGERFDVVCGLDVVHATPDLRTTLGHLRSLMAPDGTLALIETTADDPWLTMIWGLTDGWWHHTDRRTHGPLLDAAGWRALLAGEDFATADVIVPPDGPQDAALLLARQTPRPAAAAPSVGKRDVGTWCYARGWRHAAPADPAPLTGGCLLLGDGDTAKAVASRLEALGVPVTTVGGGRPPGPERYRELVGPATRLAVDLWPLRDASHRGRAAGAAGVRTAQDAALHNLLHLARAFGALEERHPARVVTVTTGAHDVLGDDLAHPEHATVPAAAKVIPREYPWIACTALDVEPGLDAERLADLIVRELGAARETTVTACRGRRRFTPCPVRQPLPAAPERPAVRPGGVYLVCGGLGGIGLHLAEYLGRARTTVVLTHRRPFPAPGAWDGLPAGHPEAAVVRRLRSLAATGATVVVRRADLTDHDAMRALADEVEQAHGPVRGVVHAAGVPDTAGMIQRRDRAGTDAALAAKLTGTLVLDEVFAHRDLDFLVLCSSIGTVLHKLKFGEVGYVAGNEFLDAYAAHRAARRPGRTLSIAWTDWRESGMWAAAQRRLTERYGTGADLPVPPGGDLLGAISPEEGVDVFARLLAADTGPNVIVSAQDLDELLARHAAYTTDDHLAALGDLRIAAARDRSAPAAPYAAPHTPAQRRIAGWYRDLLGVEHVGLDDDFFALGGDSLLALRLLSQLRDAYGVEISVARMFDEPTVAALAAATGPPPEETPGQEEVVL

Gsp PPTase from the gramicidin S producer Bacillus brevis (from UniProt P40683 1-237) (enzyme)
in vivo 4′-phosphopantetheinylation on co-expression with gsp, HPLC analysis [1]: > 60%

Val-A (adenylation domain of a type I NRPS from a gene cluster of Sv ATCC15003 unrelated to BLM biosynthesis)
in vitro aminoacylation in trans with L-[^14C(U)]valine and ATP, SDS-PAGE and autoradiography [2]: nor incubation of L-[^14C(U)]valine with the Val-A and apo-BlmI proteins, resulted in the detection of ^14C-labeled BlmI protein | in vitro aminoacylation in trans with L-[^14C(U)]valine and ATP, SDS-PAGE and autoradiography [3]: the holo-BlmI was specifically labeled by L-[^14C(U)]valine in the presence of Val-A

B1: Sfp PPTase from the surfactin producer Bacillus subtilis (protein)
chain: MKIYGIYMDRPLSQEENERFMSFISPEKREKCRRFYHKEDAHRTLLGDVLVRSVISRQYQLDKSDIRFSTQEYGKPCIPDLPDAHFNISHSGRWVICAFDSQPIGIDIEKTKPISLEIAKRFFSKTEYSDLLAKDKDEQTDYFYHLWSMKESFIKQEGKGLSLPLDSFSVRLHQDGQVSIELPDSHSPCYIKTYEVDPGYKMAVCAAHPDFPEDITMVSYEELL
transfer of 4′-phosphopantetheine group from CoA to apo-BlmI [4]: can recognize apo-BlmI as a substrate | in vitro 4′-phosphopantetheinylation with [^3H-pantetheine]-CoA, autoradiography [5]: the apo-BlmI was quantitatively labeled by [^3H-pantetheine]-CoA, and no labeling was observed in the absence of either the apo-BlmI or the Sfp PPTase protein

B2: BlmI: type II peptidyl carrier protein of 90 amino acids encoded by blmI (protein)
chain: T1 sequence
modifications: left off: small tags and cut ends
notes: type II peptidyl carrier protein of 90 amino acids encoded by blmI
overproduced BlmI modified into the holo-BlmI protein [6]: at least 60% | form of purified BlmI [7]: essentially in the apo-form

B3: PptA: phosphopantetheinyl transferase of 246 amino acids encoded by pptA from S. verticillus ATCC15003 (protein)
chain: MIAALLPSWAVTEHAFTDAPDDPVSLLFPEEAAHVARAVPKRLHEFATVRVCARAALGRLGLPPGPLLPGRRGAPSWPDGVVGSMTHCQGFRGAAVARAADAASLGIDAEPNGPLPDGVLAMVSLPSEREWLAGLAARRPDVHWDRLLFSAKESVFKAWYPLTGLELDFDEAELAVDPDAGTFTARLLVPGPVVGGRRLDGFEGRWAAGEGLVVTAIAVAAPAGTAEESAEGAGKEATADDRTAVPHHHHHH
PPTase activity on type I PCP [8]: robust phosphopantetheinylation activity | PPTase activity on type II ACP [9]: able to posttranslationally modified | PPTase activity on type II PCP [10]: robust phosphopantetheinylation activity | PPTase activity on type I ACP [11]: able to posttranslationally modified
